The numbers were not newly measured in PMC10910070, which cites them from elsewhere.

As a reminder, the Kd is the concentration at which binding is half-saturated.

For this series, the system named is gliadin (wheat, commercial mixture) (wheat). Description: not stated (cited value). As to conditions: 5 mM Tris pH 7.4, 25 C; 300 uL AuNPs + 200 uL 40 nM aptamer + 200 uL gliadin, then 200 uL NaCl (40 mM in Methods, 37 mM in Fig. 2 legend), 900 uL final.

In the case of CTACACATGTCTGAATGCC [Apt-2], the Kd was 148 nM. Take “CCAGTCTCCCGTTTACCGCGCCTACACATGTCTGAATGCC [Apt-1]”: the Kd was 186 nM.
